According to patent publication US20250230251A1:

Target: extracellular matrix (ECM) proteins
Test: ECM (Matrigel) ELISA, 1 µM antibody

| ECM score | Substance |
| --- | --- |
| 24.2 | high control mAb (antibody) |
| 1.1 | low control mAb (antibody) |
